This passage reports other results from publication PMC9266650.

For the assay, the target named is T148-ADP-ribosylated-actin (100% TccC3-ADP-ribosylated actin) (not stated (purified from rabbit or chicken skeletal muscle)), P68135. Particulars: remark: other sources report otherwise.

B1: Actin-depolymerizing factor, P60981 1-165 (natural protein)
chain: MASGVQVADEVCRIFYDMKVRKCSTPEEIKKRKKAVIFCLSADKKCIIVEEGKEILVGDVGVTITDPFKHFVGMLPEKDCRYALYDASFETKESRKEELMFFLWAPELAPLKSKMIYASSKDAIKKKFQGIKHECQANGPEDLNRACIAEKLGGSLIVAFEGCPV
B1 registered an other of 15 fold.
